# Assay results from paper PMC2714943 (Biochemistry, 2009).
# How the values were obtained:
# [1] = target: (+)-δ-cadinene synthase (DCS, isozyme XC1) (Gossypium arboreum, UniProt Q39761)
# [2] = test system: CC(C)=CCC/C(C)=C/CC/C(C)=C/CO[P@@](=O)(O)OP(=O)(O)O; assay: purified protein; assay type: biochemical, Gossypium arboreum; settings: Mg2+
# Sequence of (+)-δ-cadinene synthase (DCS, isozyme XC1) (Q39761 whole entry): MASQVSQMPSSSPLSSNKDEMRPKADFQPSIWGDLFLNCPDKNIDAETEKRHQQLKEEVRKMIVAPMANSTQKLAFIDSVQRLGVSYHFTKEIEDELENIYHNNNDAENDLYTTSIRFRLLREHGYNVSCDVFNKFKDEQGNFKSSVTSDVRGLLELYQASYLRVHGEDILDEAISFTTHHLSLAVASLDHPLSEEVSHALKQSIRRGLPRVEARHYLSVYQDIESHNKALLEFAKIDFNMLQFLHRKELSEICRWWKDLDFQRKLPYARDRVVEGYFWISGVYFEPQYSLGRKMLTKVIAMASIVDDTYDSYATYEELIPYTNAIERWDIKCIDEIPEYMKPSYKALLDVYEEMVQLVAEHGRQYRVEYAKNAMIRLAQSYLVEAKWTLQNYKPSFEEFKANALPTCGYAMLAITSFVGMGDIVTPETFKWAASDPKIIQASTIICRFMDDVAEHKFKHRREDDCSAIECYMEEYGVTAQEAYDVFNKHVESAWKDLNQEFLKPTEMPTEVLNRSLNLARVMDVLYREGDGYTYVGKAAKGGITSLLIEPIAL
Km [1],Compound,Km [2]
3.2 ± 0.5 µM,CC(C)=CCC/C(C)=C/CC/C(C)=C/CO[P@@](=O)(O)OP(=O)(O)O [FPP],–
–,"(+)-δ-cadinene synthase (DCS, isozyme XC1) (Gossypium arboreum; D308A)",43 ± 16 µM
–,"(+)-δ-cadinene synthase (DCS, isozyme XC1) (Gossypium arboreum; D451A)",2.4 ± 0.3 µM
–,"(+)-δ-cadinene synthase (DCS, isozyme XC1) (Gossypium arboreum; D452A)",3.1 ± 1.2 µM
